We go through nine molecules from PMC5902045, “Degenerate Pax2 and Senseless binding motifs improve detection of low-affinity sites required for enhancer specificity”.

Where a chain is given by its changes, count along the chain named.

One series deals with Pax2 (UniProt Q8IM96 175-301). In words: EMSA; Native PAGE EMSA, probe 0.36 uM, LI-COR imaging; protein amounts in ng; buffer, salt, pH and temperature not given (cited to refs 43, 64). The conditions noted are these: protein: recombinant; tags: His.
Sequence of Pax2 (Q8IM96 entry or part of it): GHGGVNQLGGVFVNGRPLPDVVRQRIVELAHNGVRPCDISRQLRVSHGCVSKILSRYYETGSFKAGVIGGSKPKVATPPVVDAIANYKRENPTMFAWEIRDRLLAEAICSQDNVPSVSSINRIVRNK
The next series addresses Senseless (Sens) (UniProt Q9N658 413-520). The description is as above. The conditions noted are these: protein: recombinant; tags: His.

Sequence of Senseless (Sens) (Q9N658 413-520): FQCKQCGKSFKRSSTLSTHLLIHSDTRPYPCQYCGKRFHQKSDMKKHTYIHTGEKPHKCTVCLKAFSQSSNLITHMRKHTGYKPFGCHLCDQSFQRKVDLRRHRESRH

B1: RhoA-WT (dsDNA)
DNA 1: TCGTTGCAGTTCATTGATTGACATTTTTATTATGCATATTCGCTGGT
DNA 2: ACCAGCGAATATGCATAATAAAAATGTCAATCAATGAACTGCAACGA
Consider B1, for which the binding result with Pax2 and with Senseless (Sens) was “binds” in each case.

B2: RhoA-SM (Sens site mutant) (dsDNA)
DNA 1: B1 DNA 1 with C12G, A13G
DNA 2: B1 DNA 2 with T35C, G36C
With B2, the binding result in the series with Senseless (Sens) was “no binding”.

B3: RhoA-PM (Pax2 site mutant) (dsDNA)
DNA 1: B1 DNA 1 with T4G, T5G, G6T
DNA 2: B1 DNA 2 with C42A, A43C, A44C
In the case of B3, the binding result with Senseless (Sens) is “binds”.

B4: RhoA-PS (strong Pax2 site) (dsDNA)
DNA 1: B1 DNA 1 with T5C, G6A, A8G
DNA 2: B1 DNA 2 with T40C, C42T, A43G
With B4, the binding result with Pax2 and in the series with Senseless (Sens) was “binds” in each case.

B5: RhoA-SS (strong Sens site) (dsDNA)
DNA 1: B1 DNA 1 with T11G, T14C
DNA 2: B1 DNA 2 with A34G, A37C
In the case of B5, in the series with Senseless (Sens), the binding result is on record as “binds”.

B6: RhoA-PSSS (strong Pax2 and Sens sites) (dsDNA)
DNA 1: B1 DNA 1 with T5C, G6A, A8G, T11G, T14C
DNA 2: B1 DNA 2 with A34G, A37C, T40C, C42T, A43G
Regarding B6, the binding result in the series with Pax2 and with Senseless (Sens) was “binds” throughout.

B7: RhoA-SM/SM (dsDNA)
DNA 1: TCGTTGCAGTTGGTTGATTGACATTTTTATTATGCATGGTTGATTGA
DNA 2: TCAATCAACCATGCATAATAAAAATGTCAATCAACCAACTGCAACGA
In the case of B7, the binding result with Senseless (Sens) is “no binding”.

B8: RhoA-SM/SS (dsDNA)
DNA 1: B7 DNA 1 with T37G, G38C, G39A, T40C
DNA 2: B7 DNA 2 with A8G, C9T, C10G, A11C
As for B8, the binding result in the series with Senseless (Sens) is listed as “binds”.

B9: RhoA-SM/SWT (dsDNA)
DNA 1: B7 DNA 1 with G38C, G39A
DNA 2: B7 DNA 2 with C9T, C10G
With B9, the binding result in the series with Senseless (Sens) was “binds”.
